Substitutions are numbered along the chain they refer to.

The target in data set [1] is T1, human p53 (hp53) (Homo sapiens, UniProt P04637 1-393). Description: EMSA (GA cross-linked, IR dye); 25 mM Tris-HCl pH 7.5, 2 mM DTT, 100 mM NaCl, 1 mM ADP, 5 mM MgCl2 (or 20 mM HEPES pH 7.5, 10 mM ADP), 25 C, then 0.025% glutaraldehyde 20 min; 'weaker' refers. Conditions: protein: recombinant; chain copies: 4; label: 5' IR800 both strands; blunt.
The target of data set [2] is T2, murine p53 (mp53) (mouse, UniProt P02340 1-390). Described as above. Conditions: protein: recombinant; chain copies: 4; label: 5' IR800 both strands; blunt.
The target of data set [3] is T1, human p53 (hp53). Description: EMSA (GA cross-linked SDS-PAGE); multiple tetramers; 25 mM Tris-HCl pH 7.5, 2 mM DTT, 100 mM NaCl, 1 mM ADP, 5 mM MgCl2 (or 20 mM HEPES pH 7.5, 10 mM ADP), 25 C, then 0.025% glutaraldehyde 20 min; 'weaker' refers. Conditions: protein: recombinant; chain copies: 4; blunt. On the technique in general: Mobility shift assays separate free from complexed probe on a gel.

Data set [4] addresses T2, murine p53 (mp53). The data set is described as above. The settings on record: protein: recombinant; chain copies: 4; blunt.
For data set [5], the target named is T1, human p53 (hp53). The experiment in a line: EMSA (GA cross-linked SDS-PAGE); 25 mM Tris-HCl pH 7.5, 2 mM DTT, 100 mM NaCl, 1 mM ADP, 5 mM MgCl2 (or 20 mM HEPES pH 7.5, 10 mM ADP), 25 C, then 0.025% glutaraldehyde 20 min; 'weaker' refers. The settings on record: protein: recombinant, chain copies: 4.
The target of data set [6] is T2, murine p53 (mp53). The experiment in a line: EMSA (GA cross-linked SDS-PAGE); among most efficient; 25 mM Tris-HCl pH 7.5, 2 mM DTT, 100 mM NaCl, 1 mM ADP, 5 mM MgCl2 (or 20 mM HEPES pH 7.5, 10 mM ADP), 25 C, then 0.025% glutaraldehyde 20 min; 'weaker' refers. Conditions: protein: recombinant; chain copies: 4.
The target in data set [7] is T2, murine p53 (mp53). The experiment in a line: EMSA (GA cross-linked SDS-PAGE); 25 mM Tris-HCl pH 7.5, 2 mM DTT, 100 mM NaCl, 1 mM ADP, 5 mM MgCl2 (or 20 mM HEPES pH 7.5, 10 mM ADP), 25 C, then 0.025% glutaraldehyde 20 min; 'weaker' refers. Conditions: protein: recombinant, chain copies: 4.
The next data set deals with mp53 R273H (mouse, UniProt P02340 1-390, R270H). Description: EMSA (GA cross-linked, IR dye); 25 mM Tris-HCl pH 7.5, 2 mM DTT, 100 mM NaCl, 1 mM ADP, 5 mM MgCl2 (or 20 mM HEPES pH 7.5, 10 mM ADP), 25 C, then 0.025% glutaraldehyde 20 min; 'weaker' refers. The settings on record: protein: recombinant, chain copies: 4.
The target of the next data set is mp53Δ30 (mouse, UniProt P02340 1-360). Described as above. The settings on record: protein: recombinant; chain copies: 4; label: 5' IR800 both strands; blunt.
Data set [8] has as its target T1, human p53 (hp53). Description: EMSA (GA cross-linked SDS-PAGE); increased vs 2 bp spacer; 25 mM Tris-HCl pH 7.5, 2 mM DTT, 100 mM NaCl, 1 mM ADP, 5 mM MgCl2 (or 20 mM HEPES pH 7.5, 10 mM ADP), 25 C, then 0.025% glutaraldehyde 20 min; 'weaker' refers. Conditions: protein: recombinant; chain copies: 4; blunt.
In data set [9] the target is T2, murine p53 (mp53). The data set is described as above. Conditions: protein: recombinant; chain copies: 4; blunt.

B1: gadd45_1 (dsDNA)
DNA 1: ATGAAATGAACATGTCTGAGGCATGCTGAATTAA
DNA 2: TTAATTCAGCATGCCTCAGACATGTTCATTTCAT
For B1, the binding result with human p53 (hp53) [1] and with murine p53 (mp53) [2] was “binds” in each case.

B2: DNA1 (dsDNA)
DNA 1: AGACATGCCTAGACATGCCT
DNA 2: AGGCATGTCTAGGCATGTCT
On to B2, for which the binding result with human p53 (hp53) [3] and in the data set with murine p53 (mp53) [4] was “binds” in each case.

B3: RGC RE (dsDNA)
DNA 1: TGCCTTGCCTGGACTTGCCTGGCCTTGCCT
DNA 2: AGGCAAGGCCAGGCAAGTTCAGGCAAGGCA
With B3, the binding result with human p53 (hp53) [5] is listed as “binds”.

B4: bax RE (dsDNA)
DNA 1: GGGCTATATTTCACAAGTTAGAGACAAGCCTGGGCGTGGGCTATATT
DNA 2: AATATAGCCCACGCCCAGGCTTGTCTCTAACTTGTGAAATATAGCCC
Turning to B4, the binding result with human p53 (hp53) [5] and in the data set with murine p53 (mp53) [6] was “binds” in each case.

B5: gadd45 RE (Table 1) (dsDNA)
DNA 1: GAACATGTCTAAGCATGCTG
DNA 2: CAGCATGCTTAGACATGTTC
Consider B5, for which the binding result was “binds” in the data set with human p53 (hp53) [5], “binds” with murine p53 (mp53) [7] and “no binding” in the data set with mp53 R273H.

B6: gadd45_0 (dsDNA)
DNA 1: ATGAAATGAACATGTCTAGGCATGCTGAATTAAT
DNA 2: ATTAATTCAGCATGCCTAGACATGTTCATTTCAT
As to B6, the binding result in the data set with mp53Δ30, in the data set with human p53 (hp53) [1] and with murine p53 (mp53) [2] was “binds” each time.

B7: p21 RE (dsDNA)
DNA 1: GAACATGTCCCAACATGTTG
DNA 2: CAACATGTTGGGACATGTTC
For B7, the binding result in the data set with murine p53 (mp53) [7] is reported as “binds”.

B8: MCK RE (dsDNA)
DNA 1: TGGCAAGCCTATGACATGGCCGGGGCCTGCCT
DNA 2: AGGCAGGCCCCGGCCATGTCATAGGCTTGCCA
Take B8: in the data set with human p53 (hp53) [5], the binding result is recorded as “binds”.

B9: DNA21 (dsDNA)
DNA 1: AGCATTGGCTTTCTGGCCATCAGAGACATGCCTAGACATGCCTAGCTCTGGCATAGAAGAGGCGCT
DNA 2: AGCGCCTCTTCTATGCCAGAGCTAGGCATGTCTAGGCATGTCTCTGATGGCCAGAAAGCCAATGCT
Turning to B9, the binding result with human p53 (hp53) [5] (blunt) and with murine p53 (mp53) [4] was “binds” each time.

B10: Tigar_NS (spacer removed) (dsDNA)
DNA 1: B9 DNA 1 with C31T, T33C, A38T, C41T
DNA 2: B9 DNA 2 with G26A, T29A, A34G, G36A
As for B10, the binding result in the data set with human p53 (hp53) [8] and in the data set with murine p53 (mp53) [9] was “binds” throughout.

B11: DNA6 (no spacer) (dsDNA)
DNA 1: ATGAAATAGACATGCCTAGACATGCCTGAATTAAT
DNA 2: ATTAATTCAGGCATGTCTAGGCATGTCTATTTCAT
As for B11, the binding result with human p53 (hp53) [5] and with murine p53 (mp53) [7] was “binds” throughout.

B12: non-specific control DNA (20 bp) (dsDNA)
DNA 1: TCGATCCTCTATGAATTAT
DNA 2: ATAATTCATAGAGGATCGA
Turning to B12, the binding result with mp53 R273H (label: 5' IR700 both strands) is given as “no binding”.

B13: DNA31 (1 bp spacer) (dsDNA)
DNA 1: AGCATTGGCTTTCTGGCCATCAGAGACATGCCTGAGACATGCCTAGCTCTGGCATAGAAGAGGCGCT
DNA 2: AGCGCCTCTTCTATGCCAGAGCTAGGCATGTCTCAGGCATGTCTCTGATGGCCAGAAAGCCAATGCT
On to B13, for which the binding result in the data set with human p53 (hp53) [5] (blunt) and with murine p53 (mp53) [7] (blunt) was “binds” throughout.
